T1: Trypsin inhibitor type 1-S from Glycine max (Sigma, T-2327) (Glycine max, UniProt P01070 25-205)
T1 construct: Non-target molecule, amine-coupled to a CM5 chip
T1 sequence (looked up): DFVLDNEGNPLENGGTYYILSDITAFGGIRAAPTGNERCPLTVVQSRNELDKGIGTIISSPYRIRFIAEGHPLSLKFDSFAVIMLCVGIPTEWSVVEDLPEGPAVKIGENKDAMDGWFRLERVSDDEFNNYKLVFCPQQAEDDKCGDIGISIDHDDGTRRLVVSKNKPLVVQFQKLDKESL

T2: recombinant human CD73 protein (ACRO Biosystems, item No. CD3-H52H7) (human, UniProt P21589 27-547)
T2 construct: also called recombinant CD73 protein
T2 sequence (looked up): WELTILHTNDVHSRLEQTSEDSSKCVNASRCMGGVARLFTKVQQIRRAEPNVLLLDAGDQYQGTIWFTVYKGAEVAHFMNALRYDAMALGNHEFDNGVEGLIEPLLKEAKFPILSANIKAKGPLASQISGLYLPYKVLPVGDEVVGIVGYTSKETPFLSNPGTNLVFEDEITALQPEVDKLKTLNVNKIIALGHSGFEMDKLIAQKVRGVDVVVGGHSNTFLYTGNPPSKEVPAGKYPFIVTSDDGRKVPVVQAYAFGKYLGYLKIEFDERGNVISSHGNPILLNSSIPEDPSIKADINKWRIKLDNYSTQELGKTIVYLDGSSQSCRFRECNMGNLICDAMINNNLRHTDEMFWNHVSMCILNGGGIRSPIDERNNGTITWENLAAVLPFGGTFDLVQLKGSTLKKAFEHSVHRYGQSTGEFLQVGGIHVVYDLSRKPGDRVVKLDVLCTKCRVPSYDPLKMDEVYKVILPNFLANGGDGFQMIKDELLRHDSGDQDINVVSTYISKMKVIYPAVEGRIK

T3: human CD73 on the cell surface of CHOK1-huCD73-3F4 cells (Huabo Biopharm) (human, UniProt P21589 27-549)
T3 sequence (looked up): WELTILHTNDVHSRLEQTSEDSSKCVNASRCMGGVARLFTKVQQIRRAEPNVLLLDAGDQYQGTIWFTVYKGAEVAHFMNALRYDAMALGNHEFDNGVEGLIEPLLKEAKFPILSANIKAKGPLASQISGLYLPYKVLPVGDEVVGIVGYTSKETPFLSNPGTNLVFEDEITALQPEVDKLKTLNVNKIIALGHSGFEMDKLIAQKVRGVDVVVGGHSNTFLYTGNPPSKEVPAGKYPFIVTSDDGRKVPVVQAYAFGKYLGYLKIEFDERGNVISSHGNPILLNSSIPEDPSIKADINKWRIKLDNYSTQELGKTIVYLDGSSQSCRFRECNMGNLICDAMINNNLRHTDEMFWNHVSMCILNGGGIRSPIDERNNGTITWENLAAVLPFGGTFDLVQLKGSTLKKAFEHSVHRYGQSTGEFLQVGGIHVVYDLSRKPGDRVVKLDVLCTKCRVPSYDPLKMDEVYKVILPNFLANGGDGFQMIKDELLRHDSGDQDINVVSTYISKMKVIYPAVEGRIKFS


How the values were obtained:
[1] = molecular target: T1, Trypsin inhibitor type 1-S from Glycine …; assay: SPR, Biacore 8K, trypsin inhibitor immobilized on CM5 chip
Protocol: The non-specific adsorption effect of antigen-binding proteins and non-target molecules were determined by using the SPR method.
The series sensor chip CM5 (GE, #BR-1005-30) was equilibrated at room temperature for 20-30 min and then loaded into the Biacore 8K (GE) instrument. Lysozyme solution (Sigma, #L3790) from egg and trypsin inhibitor type 1-S (Sigma, #T-2327) from Glycine max were immobilized onto the CM5 chip using an amino coupling kit (GE, #BR-1000-50). The injection buffer was HBS-EP (1×) (GE, #BR-1006-69) and four equilibration cycles were set up. The polyclonal rabbit anti-lysozyme (ABcam, Ab391), anti-trypsin inhibitor antibodies (LifeSpan Biosciences, #LS-C76609), chimeric antibodies and humanized antibodies were diluted with equilibration buffer to 1000 nM, and the flow rate was set at 5 μL/min and injection channels 1, 2 and 3, Flow Cell 1 and 2 were selected. The association time was 10 min and the dissociation time was 10 min.

[2] = molecular target: T2, recombinant human CD73 protein (ACRO …); assay: ELISA, plate coated with CD73 protein, anti-human-IgG-Fc-HRP
Protocol: The ELISA well plate was coated with 30 ul of 2 ug/ml CD73 protein (ACRO, #CD3-H52H7-100μg) solution and incubated overnight at 4° C. Then, the well plate was washed 3 times with PBST, blocked with 5% MILK/PBS at room temperature for 1 h, and then washed 3 times with PBST. […] The diluted antigen-binding protein solutions were then added to the ELISA well plate, 30 ul per well, and incubated at room temperature for 30 min. After the incubation, the well plate was washed 3 times. Anti-human-IgG-Fc-HRP was added and incubated at room temperature for 50 min. After the incubation, the well plate was washed 3 times. The TMB solution was added. The reaction was then terminated with 2M HCl and the OD450 reading was checked.

[3] = molecular target: T3, human CD73 on the cell surface of …; assay: cell-based or functional assay
[4] = molecular target: T3, human CD73 on the cell surface of …; assay: flow cytometry on CHOK1-huCD73-3F4 cells, PE-goat anti-human-Fc
Protocol: All antigen-binding proteins were diluted to 30 μg/ml with 1% BSA in PBS solution (1% BSA/PBS) and then 3-fold diluted for 11 gradients. The diluted antigen-binding proteins were added to a 96-well U-shaped plate at 20 μL per well; and a negative control (with 1% BSA/PBS added only) was set up at the same time. The suspension of cells (CHOK1-huCD73-3F4, Huabo Biopharm) expressing human CD73 during the logarithmic growth phase were centrifuged (1000 rpm×5 min) to discard the culture medium; and the cells were resuspended with 1% BSA/PBS until the density of viable cells was 1×10⁶/mL, and were added, at 20 μL (2×10⁴ cells) per well, to the 96-well U-shaped plate with the […] antigen-binding protein to react for 30 min at room temperature. After reaction, the 96-well U-shaped plate was resuspended with 1% BSA/PBS, centrifuged (300 g×3 min) to discard the supernatant, and washed once in such a way. PE-goat anti-human-Fc (Jackson ImmunoResearch, #109-115098) diluted at 1:200 was added to react for 15 min in the dark at room temperature. After reaction, the 96-well U-shaped plate was resuspended with 1% BSA/PBS, centrifuged (300 g×3 min) to discard the supernatant, washed three times in such a way, and finally resuspended with 100 μL of 1% BSA/PBS for each wall; and the fluorescence intensity of a PE channel was detected with a flow cytometer (BD, #Cantoll).

| EC50 [2] [µg/mL] | EC50 of inhibition of the enzyme activity of CD73 on cell membrane (AMP/ATP, CellTiter-Glo) [3] [µg/mL] | EC50 [4] [µg/mL] | Binder | binding result [1] |
| --- | --- | --- | --- | --- |
| 0.282 | 0.025 | 0.065 | 900567 (human-mouse chimeric anti-CD73 antigen-binding protein expressed from 124A9 variable regions) (antibody, V domains shown) VH: QVQLQQPGAELVKPGASVKLSCKASGYTFTSYWIHWVKQRPGQGLDWIGMIHPNSGSTYYNEKFKSKATLTVDKSSSTAYMQLSSLTSEDSAVYYCARYYGSDYEWYFDVWGTGTTVTVSS VL: DIVMTQSQKFMSTSVGDRVSITCKASQNVRTAVVWYQQNPGQSPKALIYLASNRHTGVPDRFTGSGSGTDFTLTISNVHSEDLADYFCLQHWNYPYTFGGGTKLEIK | no binding (tested: 1000 nM antibody; 20 RU) |
| 0.327 | 0.0697 | 0.106 | 900725 (humanized anti-CD73 antigen-binding protein) (antibody, V domains shown) VH: QVQLVQSGAEVKKPGASVKLSCKASGYTFTSYWIHWVRQAPGQGLEWIGMIHPNSGSTYYNEKFKGRATLTVDKSTSTAYMELSSLRSEDTAVYYCARYYGSDYEWYFDVWGQGTTVTVSS VL: DIQMTQSPSSMSASVGDRVTITCKASQNVRTAVVWYQQKPGKAPKALIYLASNRHTGVPDRFSGSGSGTDFTLTISSLQPEDFATYFCLQHWNYPYTFGQGTKLEIK | no binding (tested: 1000 nM antibody; 20 RU) |
| 0.364 | – | – | 900727 (humanized anti-CD73 antigen-binding protein) (antibody, V domains shown) VH: QVQLVQSGAEVKKPGASVKVSCKASGYTFTSYWIHWVRQAPGQGLEWIGMIHPNSGSTYYAQKFQGRVTITVDKSTSTAYMELSSLRSEDTAVYYCARYYGSDYEWYFDVWGQGTTVTVSS VL: DIQMTQSPSSMSASVGDRVTITCKASQNVRTAVVWYQQKPGKAPKALIYLASNRHTGVPDRFSGSGSGTDFTLTISSLQPEDFATYFCLQHWNYPYTFGQGTKLEIK | no binding (tested: 1000 nM antibody; 20 RU) |
| 0.29 | 0.0467 | 0.105 | 900728 (humanized anti-CD73 antigen-binding protein) (antibody, V domains shown) VH: QVQLVQSGAEVKKPGASVKVSCKASGYTFTSYWIHWVRQAPGQGLEWIGMIHPNSGSTYYNEKFQGRVTMTVDKSTSTAYMELSSLRSEDTAVYYCARYYGSDYEWYFDVWGQGTTVTVSS VL: DIQMTQSPSSLSASVGDRVTITCKASQNVRTAVVWYQQKPGKAPKALIYLASNRHTGVPDRFSGSGSGTDFTLTISSLQPEDFATYYCLQHWNYPYTFGQGTKLEIK | no binding (tested: 1000 nM antibody; 20 RU) |
| 0.361 | – | 0.174 | 900726 (humanized anti-CD73 antigen-binding protein) (antibody, V domains shown) VH: QVQLVQSGAEVKKPGASVKLSCKASGYTFTSYWIHWVRQAPGQGLEWIGMIHPNSGSTYYNEKFKGRATLTVDKSTSTAYMELSSLRSEDTAVYYCARYYGSDYEWYFDVWGQGTTVTVSS VL: DIQMTQSPSSLSASVGDRVTITCKASQNVRTAVVWYQQKPGKAPKALIYLASNRHTGVPDRFSGSGSGTDFTLTISSLQPEDFATYYCLQHWNYPYTFGQGTKLEIK | no binding (tested: 1000 nM antibody; 20 RU) |

From patent US20240067747A1 (SHANGHAI HUAOTA BIOPHARMACEUTICAL, published 2024)
